Patent publication US20260242419A1, “A CYCLIC PEPTIDE FOR TRAPPING INTERLEUKIN-1 BETA” (Merck Sharp & Dohme LLC, priority 2023, published 2026)
Starred links: 1 amine or outer side, 2 acyl side, 3 side chain; linkers in the order of their positions; H or OH if unused. Non-standard residues stand in square brackets, D forms with d. orbOHorPhe4COOH = 4-[(1R,2S)-2-amino-2-carboxy-1-hydroxy-ethyl]benzoic acid, O=C([C@@H](N[*:1])[C@H](O)c1ccc(C(=O)[*:3])cc1)[*:2]; Phe4PyrimOMe = (S)-2-amino-3-(4-(2-methoxypyrimidin-5-yl)phenyl)propanoic acid, COc1ncc(-c2ccc(C[C@H](N[*:1])C(=O)[*:2])cc2)cn1; Phe4ImMe = (S)-2-amino-3-(4-(1-methyl-1H-imidazol-4-yl)phenyl)propanoic acid, Cn1cnc(-c2ccc(C[C@H](N[*:1])C(=O)[*:2])cc2)c1; Phe42ImMe = (S)-2-amino-3-(4-(1-methyl-1H-imidazol-2-yl)phenyl)propanoic acid, Cn1ccnc1-c1ccc(C[C@H](N[*:1])C(=O)[*:2])cc1; dProc3CH24Pal = (2R,3S)-3-(4-pyridylmethyl)pyrrolidine-2-carboxylic acid, O=C([C@H]1[C@@H](Cc2ccncc2)CCN1[*:1])[*:2]; AlaPyrim4CONH2 = (2S)-2-amino-3-(2-carbamoylpyrimidin-5-yl)propanoic acid, NC(=O)c1ncc(C[C@H](N[*:1])C(=O)[*:2])cn1; SbOH4Pal = (2S,3S)-2-amino-3-hydroxy-3-(4-pyridyl)propanoic acid, O=C([C@@H](N[*:1])[C@@H](O[*:3])c1ccncc1)[*:2]; sbOH4Pal = (2S,3S)-2-amino-3-hydroxy-3-(4-pyridyl)propanoic acid, O=C([C@@H](N[*:1])[C@@H](O[*:3])c1ccncc1)[*:2]; Phe4Pyrim = (S)-2-amino-3-(4-(pyrimidin-5-yl)phenyl)propanoic acid, O=C([C@H](Cc1ccc(-c2cncnc2)cc1)N[*:1])[*:2]; RbOH4Pal = (2S,3R)-2-amino-3-hydroxy-3-(4-pyridyl)propanoic acid, O=C([C@@H](N[*:1])[C@H](O[*:3])c1ccncc1)[*:2]; AlaPiperazAc = (S)-3-(4-acetylpiperazin-1-yl)-2-aminopropanoic acid, CC(=O)N1CCN(C[C@H](N[*:1])C(=O)[*:2])CC1; 4PyrimAla = (2S)-2-amino-3-pyrimidin-4-yl-propanoic acid, O=C([C@H](Cc1ccncn1)N[*:1])[*:2]; daMeSMe = (2R)-2-amino-3-methoxy-2-methyl-propanoic acid, COC[C@@](C)(N[*:1])C(=O)[*:2]; Ala(2-carboxypyrimidin-5-yl) = N[C@@H](Cc1cnc(C(=O)O)nc1)C(=O)O; dPro(4R-(4-pyridylmethyl)) = O=C(O)[C@H]1C[C@@H](Cc2ccncc2)CN1; Trp(βS-Me,4-F) = C[C@@H](c1c[nH]c2cccc(F)c12)[C@H](N)C(=O)O; Bip(4'-COOH) = N[C@@H](Cc1ccc(-c2ccc(C(=O)O)cc2)cc1)C(=O)O; Ala(1-bicyclo(1.1.1)pentyl) = N[C@@H](CC12CC(C1)C2)C(=O)O; Phe(4-(4-pyridyl)) = N[C@@H](Cc1ccc(-c2ccncc2)cc1)C(=O)O; dPro(4R-Bzl(4-F)) = O=C(O)[C@H]1C[C@@H](Cc2ccc(F)cc2)CN1; dPro(3S-(4-F-Bn)) = O=C(O)[C@@H]1NCC[C@@H]1Cc1ccc(F)cc1; Ala(morpholin-4-yl) = N[C@@H](CN1CCOCC1)C(=O)O; Ala(piperazin-1-yl) = N[C@@H](CN1CCNCC1)C(=O)O; Ala(pyrimidin-5-yl) = N[C@@H](Cc1cncnc1)C(=O)O; Phe(4-COOH) = N[C@@H](Cc1ccc(C(=O)O)cc1)C(=O)O; Bip = N[C@@H](Cc1ccc(-c2ccccc2)cc1)C(=O)O; Pro(cis-4-F) = O=C(O)[C@@H]1C[C@H](F)CN1; Met(O2) = CS(=O)(=O)CC[C@H](N)C(=O)O; d(αMeF) = C[C@@](N)(Cc1ccccc1)C(=O)O; Dap(CONH2) = NC(=O)NC[C@H](N)C(=O)O; cisHyp = O=C(O)[C@@H]1C[C@H](O)CN1; d(αMeD) = C[C@@](N)(CC(=O)O)C(=O)O; 4Pal = N[C@@H](Cc1ccncc1)C(=O)O; aThr = C[C@H](O)[C@H](N)C(=O)O; NMeDab = CN[C@@H](CCN)C(=O)O; Dab = NCC[C@H](N)C(=O)O; Aib = CC(C)(N)C(=O)O

B1: SEQ ID NO 263 (peptide)
peptide: cyclo([Bip(4'-COOH)][4Pal][Phe(4-COOH)]G[Pro(cis-4-F)][Trp(βS-Me,4-F)][Aib]SW[d(αMeD)][sbOH4Pal]Q[Dab]G[dPro(3S-(4-F-Bn))])
modifications: ring closure inferred
B2: SEQ ID NO 278 (peptide)
peptide: cyclo(Y[4Pal][Phe(4-COOH)]G[Pro(cis-4-F)][Trp(βS-Me,4-F)][Aib]SW[d(αMeD)][Ala(pyrimidin-5-yl)]Q[Dab]G[dPro(3S-(4-F-Bn))])
modifications: ring closure inferred
B3: SEQ ID NO 287 (peptide)
peptide: cyclo([Bip(4'-COOH)][4Pal][Phe(4-COOH)]G[Pro(cis-4-F)][Trp(βS-Me,4-F)][Aib]SW[d(αMeD)][Ala(piperazin-1-yl)]Q[Dab]G[dPro(3S-(4-F-Bn))])
modifications: ring closure inferred
B4: SEQ ID NO 283 (peptide)
peptide: cyclo([Phe(4-(4-pyridyl))][4Pal][Phe(4-COOH)]G[Pro(cis-4-F)][Trp(βS-Me,4-F)][Aib]SW[d(αMeD)][Ala(pyrimidin-5-yl)]Q[Dab]G[dPro(3S-(4-F-Bn))])
modifications: ring closure inferred
B5: SEQ ID NO 285 (peptide)
peptide: cyclo([Bip(4'-COOH)][Ala(1-bicyclo(1.1.1)pentyl)][Phe(4-COOH)]G[Pro(cis-4-F)][Trp(βS-Me,4-F)][Aib]SW[d(αMeD)][4PyrimAla]Q[Dab]G[dPro(4R-(4-pyridylmethyl))])
modifications: ring closure inferred
B6: SEQ ID NO 280 (peptide)
peptide: cyclo([Phe42ImMe][4Pal][Phe(4-COOH)]G[Pro(cis-4-F)][Trp(βS-Me,4-F)][Aib]SW[d(αMeD)][Ala(pyrimidin-5-yl)]Q[Dab]G[dPro(3S-(4-F-Bn))])
modifications: ring closure inferred
B7: SEQ ID NO 264 (peptide)
peptide: cyclo([Bip][4Pal][Phe(4-COOH)]G[cisHyp][Trp(βS-Me,4-F)][Aib]SW[d(αMeD)][Ala(pyrimidin-5-yl)]Q[Dab]G[dPro(4R-(4-pyridylmethyl))])
modifications: ring closure inferred
B8: SEQ ID NO 275 (peptide)
peptide: cyclo([Bip(4'-COOH)][4Pal][orbOHorPhe4COOH]G[Pro(cis-4-F)][Trp(βS-Me,4-F)][Aib]SW[Aib][Ala(pyrimidin-5-yl)]Q[Dab]G[dPro(4R-Bzl(4-F))])
modifications: ring closure inferred
B9: SEQ ID NO 282 (peptide)
peptide: cyclo([Phe4Pyrim][4Pal][Phe(4-COOH)]G[Pro(cis-4-F)][Trp(βS-Me,4-F)][Aib]SW[d(αMeD)][Ala(pyrimidin-5-yl)]Q[Dab]G[dPro(3S-(4-F-Bn))])
modifications: ring closure inferred
B10: SEQ ID NO 276 (peptide)
peptide: cyclo([Bip(4'-COOH)][4Pal][Phe(4-COOH)]G[Pro(cis-4-F)][Trp(βS-Me,4-F)][Aib]EW[Aib]HQ[Dab]G[dPro(4R-Bzl(4-F))])
modifications: ring closure inferred
B11: SEQ ID NO 281 (peptide)
peptide: cyclo([Phe4PyrimOMe][4Pal][Phe(4-COOH)]G[Pro(cis-4-F)][Trp(βS-Me,4-F)][Aib]SW[d(αMeD)][Ala(pyrimidin-5-yl)]Q[Dab]G[dPro(3S-(4-F-Bn))])
modifications: ring closure inferred
B12: SEQ ID NO 259 (peptide)
peptide: cyclo([Bip(4'-COOH)][4Pal][Phe(4-COOH)]G[Pro(cis-4-F)][Trp(βS-Me,4-F)][Aib]SW[d(αMeF)]DQ[Dab]G[dPro(4R-(4-pyridylmethyl))])
modifications: ring closure inferred
B13: SEQ ID NO 266 (peptide)
peptide: cyclo([Bip(4'-COOH)][4Pal][Phe(4-COOH)]G[Pro(cis-4-F)][Trp(βS-Me,4-F)][Aib]SW[Aib][Met(O2)]Q[Dab]G[dPro(4R-(4-pyridylmethyl))])
modifications: ring closure inferred
B14: SEQ ID NO 270 (peptide)
peptide: cyclo([Bip(4'-COOH)][4Pal][Phe(4-COOH)]G[Pro(cis-4-F)][Trp(βS-Me,4-F)][Aib]SW[Aib][Ala(pyrimidin-5-yl)]Q[Dap(CONH2)]G[dPro(4R-(4-pyridylmethyl))])
modifications: ring closure inferred
B15: SEQ ID NO 262 (peptide)
peptide: cyclo([Bip(4'-COOH)][4Pal][Phe(4-COOH)]G[Pro(cis-4-F)][Trp(βS-Me,4-F)][Aib]SW[Aib][Ala(pyrimidin-5-yl)]Q[NMeDab]G[dPro(4R-(4-pyridylmethyl))])
modifications: ring closure inferred
B16: SEQ ID NO 286 (peptide)
peptide: cyclo([Bip(4'-COOH)][4Pal][Phe(4-COOH)]G[Pro(cis-4-F)][Trp(βS-Me,4-F)][Aib]SW[d(αMeD)][Ala(morpholin-4-yl)]Q[Dab]G[dPro(3S-(4-F-Bn))])
modifications: ring closure inferred
B17: SEQ ID NO 284 (peptide)
peptide: cyclo([Bip(4'-COOH)][Ala(1-bicyclo(1.1.1)pentyl)][Phe(4-COOH)]G[Pro(cis-4-F)][Trp(βS-Me,4-F)][Aib]SW[d(αMeD)][4PyrimAla]Q[Dab]G[dProc3CH24Pal])
modifications: ring closure inferred
B18: SEQ ID NO 272 (peptide)
peptide: cyclo([Bip(4'-COOH)][4Pal][Phe(4-COOH)]G[Pro(cis-4-F)][Trp(βS-Me,4-F)][Aib]SW[Aib][SbOH4Pal]Q[Dab]G[dPro(4R-Bzl(4-F))])
modifications: ring closure inferred
B19: SEQ ID NO 269 (peptide)
peptide: cyclo([Bip][4Pal][Phe(4-COOH)]G[Pro(cis-4-F)][Trp(βS-Me,4-F)][Aib]SW[Aib][Ala(2-carboxypyrimidin-5-yl)]Q[Dab]G[dPro(4R-(4-pyridylmethyl))])
modifications: ring closure inferred
B20: SEQ ID NO 267 (peptide)
peptide: cyclo([Bip(4'-COOH)][4Pal][Phe(4-COOH)]G[Pro(cis-4-F)][Trp(βS-Me,4-F)][Aib]SW[Aib][AlaPyrim4CONH2]Q[Dab]G[dPro(4R-(4-pyridylmethyl))])
modifications: ring closure inferred
B21: SEQ ID NO 260 (peptide)
peptide: cyclo([Bip(4'-COOH)][4Pal][Phe(4-COOH)]G[Pro(cis-4-F)][Trp(βS-Me,4-F)][Aib]SW[daMeSMe][Ala(pyrimidin-5-yl)]Q[Dab]G[dPro(4R-(4-pyridylmethyl))])
modifications: ring closure inferred
B22: SEQ ID NO 265 (peptide)
peptide: cyclo([Bip][4Pal][Phe(4-COOH)]G[Pro(cis-4-F)][Trp(βS-Me,4-F)][Aib]SW[Aib][dD]Q[Dab]G[dPro(4R-(4-pyridylmethyl))])
modifications: ring closure inferred
B23: SEQ ID NO 268 (peptide)
peptide: cyclo([Bip(4'-COOH)][4Pal][Phe(4-COOH)]G[Pro(cis-4-F)][Trp(βS-Me,4-F)][Aib]SW[Aib][Ala(2-carboxypyrimidin-5-yl)]Q[Dab]G[dPro(4R-(4-pyridylmethyl))])
modifications: ring closure inferred
B24: SEQ ID NO 273 (peptide)
peptide: cyclo([Bip(4'-COOH)][4Pal][Phe(4-COOH)]G[Pro(cis-4-F)][Trp(βS-Me,4-F)][Aib]SW[Aib][RbOH4Pal]Q[Dab]G[dPro(4R-Bzl(4-F))])
modifications: ring closure inferred
B25: SEQ ID NO 277 (peptide)
peptide: cyclo([Phe4F][4Pal][Phe(4-COOH)]G[Pro(cis-4-F)][Trp(βS-Me,4-F)][Aib]SW[d(αMeD)][Ala(pyrimidin-5-yl)]Q[Dab]G[dPro(3S-(4-F-Bn))])
modifications: ring closure inferred
B26: SEQ ID NO 271 (peptide)
peptide: cyclo([Bip(4'-COOH)][4Pal][Phe(4-COOH)]G[Pro(cis-4-F)][Trp(βS-Me,4-F)][Aib]EW[Aib][AlaPiperazAc]QSG[dPro(4R-Bzl(4-F))])
modifications: ring closure inferred
B27: SEQ ID NO 261 (peptide)
peptide: cyclo([Bip(4'-COOH)][4Pal][Phe(4-COOH)]G[Pro(cis-4-F)][Trp(βS-Me,4-F)][Aib]SW[daMeSMe][aThr]Q[Dab]G[dPro(4R-(4-pyridylmethyl))])
modifications: ring closure inferred
B28: SEQ ID NO 274 (peptide)
peptide: cyclo([Bip(4'-COOH)][RbOH4Pal][Phe(4-COOH)]G[Pro(cis-4-F)][Trp(βS-Me,4-F)][Aib]SW[Aib][Ala(pyrimidin-5-yl)]Q[Dab]G[dPro(4R-Bzl(4-F))])
modifications: ring closure inferred
B29: SEQ ID NO 279 (peptide)
peptide: cyclo([Phe4ImMe][4Pal][Phe(4-COOH)]G[Pro(cis-4-F)][Trp(βS-Me,4-F)][Aib]SW[d(αMeD)][Ala(pyrimidin-5-yl)]Q[Dab]G[dPro(3S-(4-F-Bn))])
modifications: ring closure inferred

These binders were tested against Recombinant human IL-1β (BioLegend 579404) (human, UniProt P01584 117-269) (assay: cell-based or functional assay).

Row | MRC5 IC50 [nM] | Binder
1 | 0.017 | B1
2 | 0.021 | B2
3 | 0.011 | B3
4 | 0.016 | B4
5 | 0.013 | B5
6 | 0.016 | B6
7 | 0.017 | B7
8 | 0.018 | B8
9 | 0.014 | B9
10 | 0.017 | B10
11 | 0.012 | B11
12 | 0.014 | B12
13 | 0.019 | B13
14 | 0.023 | B14
15 | 0.02 | B15
16 | 0.01 | B16
17 | 0.015 | B17
18 | 0.018 | B18
19 | 0.014 | B19
20 | 0.014 | B20
21 | 0.013 | B21
22 | 0.022 | B22
23 | 0.014 | B23
24 | 0.013 | B24
25 | 0.023 | B25
26 | 0.023 | B26
27 | 0.017 | B27
28 | 0.026 | B28
29 | 0.013 | B29
